From paper PMC7210950, “Btk SH2-kinase interface is critical for allosteric kinase activation and its targeting inhibits B-cell neoplasms” (Nature Communications, 2020)
Square brackets hold non-standard residues; d marks the D form. Ends that are not written are not given here. pY = N[C@@H](Cc1ccc(OP(=O)(O)O)cc1)C(=O)O

What was measured:
Experiment in all cases: fluorescence polarisation; Btk SH2 WT and mutants at several concentrations with 1 µM FITC-labeled peptide; Tris 40 mM pH 8, 150 mM NaCl, 1 mM DTT; 1:1 binding model
Conditions in all cases: both partners purified
[1] = molecular target: T1, Btk SH2 domain K296E (XLA mutation) (human, UniProt Q06187 271-383, K296E)
T1 construct: SH2 domain of human Btk with the XLA patient mutation K296E; Same limits as m1; source: E. coli Bl21(DE3), purified (Ni-NTA, TEV cleavage, SEC); not shown: His6, N-terminal, cleaved; GST, N-terminal, cleaved

[2] = molecular target: T2, Btk SH2 domain R372G (XLA mutation) (human, UniProt Q06187 271-383, R372G)
T2 construct: SH2 domain of human Btk with the XLA patient mutation R372G; Same limits as m1; source: E. coli Bl21(DE3), purified (Ni-NTA, TEV cleavage, SEC); not shown: His6, N-terminal, cleaved; GST, N-terminal, cleaved

[3] = molecular target: T3, Btk SH2 domain S371P (XLA mutation) (human, UniProt Q06187 271-383, S371P)
T3 construct: SH2 domain of human Btk with the XLA patient mutation S371P; Same limits as m1; source: E. coli Bl21(DE3), purified (Ni-NTA, TEV cleavage, SEC); not shown: His6, N-terminal, cleaved; GST, N-terminal, cleaved

[4] = molecular target: T4, Btk SH2 domain H364D (XLA mutation) (human, UniProt Q06187 271-383, H364D)
T4 construct: SH2 domain of human Btk with the XLA patient mutation H364D; Same limits as m1; source: E. coli Bl21(DE3), purified (Ni-NTA, TEV cleavage, SEC); not shown: His6, N-terminal, cleaved; GST, N-terminal, cleaved

[5] = molecular target: T5, Btk SH2 domain K374N (XLA mutation) (human, UniProt Q06187 271-383, K374N)
T5 construct: SH2 domain of human Btk with the XLA patient mutation K374N; Same limits as m1; also called Btk SH2 K374N; source: E. coli Bl21(DE3), purified (Ni-NTA, TEV cleavage, SEC); not shown: His6, N-terminal, cleaved; GST, N-terminal, cleaved

[6] = molecular target: T6, Btk SH2 domain, wild-type (recombinant) (human, UniProt Q06187 271-383)
T6 construct: SH2 domain of human Bruton's tyrosine kinase (Btk); the construct is in PDB 6HTF; Construct limits are not in the text; also called Btk SH2 WT; human Btk SH2 domain; source: E. coli Bl21(DE3), purified (Ni-NTA, TEV cleavage, SEC); not shown: His6, N-terminal, cleaved; GST, N-terminal, cleaved

Measured: binding result

T1 sequence (Q06187 271-383 K296E): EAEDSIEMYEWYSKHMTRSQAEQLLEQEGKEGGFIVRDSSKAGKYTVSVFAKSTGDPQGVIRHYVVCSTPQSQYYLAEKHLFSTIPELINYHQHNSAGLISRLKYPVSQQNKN
T5 sequence (Q06187 271-383 K374N): as the sequence (Q06187 271-383 K296E) above, with E26K, K104N counted along it
T3 sequence (Q06187 271-383 S371P): as the sequence (Q06187 271-383 K296E) above, with E26K, S101P counted along it
T4 sequence (Q06187 271-383 H364D): as the sequence (Q06187 271-383 K296E) above, with E26K, H94D counted along it
T2 sequence (Q06187 271-383 R372G): as the sequence (Q06187 271-383 K296E) above, with E26K, R102G counted along it
T6 sequence (Q06187 271-383): as the sequence (Q06187 271-383 K296E) above, with E26K counted along it

B1: FITC-labeled pY-peptide (ADNDpYIIPLPD) (peptide)
peptide: ADND[pY]IIPLPD
modifications: also: FITC label, end not given here
notes: also called fluorescently labeled pY-peptide
binds: all assays above
